Columns and labels:
[1] = biological target: rfa2_human RPA2 (UniProt P15927)
[2] = biological target: rfa2_human RPA2 (UniProt P15927); remark: listed apart in the source

Sequence of rfa2_human RPA2 (P15927 whole entry): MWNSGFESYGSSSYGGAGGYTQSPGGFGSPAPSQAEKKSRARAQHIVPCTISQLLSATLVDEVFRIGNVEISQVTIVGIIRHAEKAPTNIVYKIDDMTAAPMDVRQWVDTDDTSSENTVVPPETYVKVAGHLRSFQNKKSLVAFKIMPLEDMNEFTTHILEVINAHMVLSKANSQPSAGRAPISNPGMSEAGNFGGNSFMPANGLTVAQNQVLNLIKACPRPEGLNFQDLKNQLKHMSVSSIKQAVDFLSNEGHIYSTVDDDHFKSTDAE

| Substance | effect of a mutation on the interaction [1] | effect of a mutation on the interaction [2] |
| --- | --- | --- |
| Bifunctional 3'-5' exonuclease/ATP-dependent helicase WRN (Homo sapiens), Q14191 S991A | disrupting interaction |  |
| Bifunctional 3'-5' exonuclease/ATP-dependent helicase WRN (Homo sapiens), Q14191 S1058A |  | disrupting interaction |
| Bifunctional 3'-5' exonuclease/ATP-dependent helicase WRN (Homo sapiens), Q14191 S1141A |  | disrupting interaction |
| Bifunctional 3'-5' exonuclease/ATP-dependent helicase WRN (Homo sapiens), Q14191 S1256A | disrupting interaction |  |
| Bifunctional 3'-5' exonuclease/ATP-dependent helicase WRN (Homo sapiens), Q14191 S1292A |  | disrupting interaction |
| Bifunctional 3'-5' exonuclease/ATP-dependent helicase WRN (Homo sapiens), Q14191 T1152A | disrupting interaction |  |
